Measurements reported in PMC10454854, “Structural and Biochemical Analysis of the Recombination Mediator Protein RecR from Campylobacter jejuni” (International Journal of Molecular Sciences, 2023).

B1: Campylobacter jejuni RecR (natural protein, UniProt Q9PN35 1-190, looked up)
chain: MVKGLEKFNELVESFANLPTIGKKTAIRLAYHLCINNQIDGMKLAHNIENAIRFIKPCEQCGALSENELCEICSDKERNKNILCIVESPKDILTLEESQSYNGLYFVLDELNEEKLEKLKQIILKLNISELIFALTHSINSDATIFFIEDKFKGLNLTFSKIAQGIPSGVNLENVDLISLNKAMNFRTKI
notes: RecR of Campylobacter jejuni subsp. jejuni (ATCC 33291), residues 1-190; cloned by PCR from genomic DNA; Expressed from a pET49b variant with an N-terminal hexahistidine tag and a thrombin site; Residues 1-189 are seen in the structure; also called cjRecR; source: E. coli BL21 (DE3), purified (Ni-NTA, thrombin cleavage, Mono Q anion exchange); not shown: His6, N-terminal, cleaved

Tests used:
[1] = biological target: T1, cjRecR (Campylobacter jejuni, UniProt Q9PN35 1-190); experiment: fluorescence polarization; Fluorescence polarization: 0.8 nM fluorescein 40-mer ssDNA, protein up to 100 uM, one-site fit; buffer, salt, pH and temperature not stated; conditions: protein: recombinant; tags: His6 tag removed with thrombin; chain copies: 4; single strand
T1 sequence: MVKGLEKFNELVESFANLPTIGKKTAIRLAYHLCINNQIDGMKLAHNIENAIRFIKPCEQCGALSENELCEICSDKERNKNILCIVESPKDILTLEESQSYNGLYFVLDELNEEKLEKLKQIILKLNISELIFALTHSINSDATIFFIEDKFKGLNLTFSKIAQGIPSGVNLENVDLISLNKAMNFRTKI

[2] = biological target: the molecule itself; experiment: crystal structure; crystal of cjRecR (residues 1-190), four subunits in the asymmetric unit; sitting drop, 18 °C, 17% ethanol, 0.1 M Hepes pH 7.5, 0.25 M magnesium chloride; 2.6 Å
[3] = biological target: the molecule itself; experiment: SEC; cjRecR alone (~300 μg in 300 μL), Superdex 200 10/300, 20 mM Tris pH 8.0, 150 mM NaCl, 5 mM βME; size against gel-filtration standards

Binder	Kd [1] [µM]	stoichiometry N [2]	stoichiometry N [3]
TTATAGGCATATAGGAGTAATTTTCTTGGGCTATGCAGTA (ssDNA) [40-mer ssDNA]	6.8		
B1		4	2
